Test results as given in a protein production outcome set (Wang et al. 2014).

Assay: label from the status in PepcDB records

Sequence	protein production
MLKRTFILIGLVLSFCSLPAQELIQITTRNTALVFRVANQSLRQVYYGPRLADTDVLQKQGNNFPAYSTYGMGEQNEVALHAVHADGNTSTLLNFENVKQESPEPGITLTTISLKDPLYPFQVKLFYKAYEESDLIEQWTIYQHTEKKPVTLYQFASAQLSFKSSSYRLTHFAGDWAGECNMSEVELTEGIKVIDSKLGTRATFFAHPMCLLSLNGRMTEDNGEVIGMALAWPANFKLEFEKNNNQELRVLAGMNPYASHYKLKKGDVFQTPSFLYTYSTKGNGQVSRNFHRWARKYGLRHGENSRYTLMNNWEATYFNFNEPKLKSIIEDAAGMGFELFLLDDGWFGQKHPRNNDDAGLGDWVVNKEKLPNGLGWLVKQCTDNDIKFGIWVEPEMVNPQSELFEKHPDWVIQQPEREHILFRRQLVLDLSNPEVQEFVYKSVHDILKDNPQIAFVKWDCNRAVTNPGSTYLPADEQSHIWIEYGRGLLNVFKKVRDSHPDVHFMLCSGGGGRLDYGSLRYFEEYWPSDNTDALQRILIQWGNSQFFPSIAMCCHVSASPNHQTGRTTPLKFRFDVAMQGALGMDLQPSTMNEKEVIFAKEAIKTYESIRNIVFTGDLYRILSPYEGNRTSMMYVLPDKSRAVFYAYQLKSHIGEVSAPMRFKGLIPDKKYNVKELNIYPGSRAATGSANGQSFSGDFLMNQGLPIGLSGDYSSAVIELEQQ	failed
SIAILVIMHGESTASSMVNVANTLLDCNHAVAINMGLEDRVQDILVQAVEIANKIDKGKGILILTDMGSILTFAKVIRDATGKEVKAIDMVSTPIVIEATRKALTPEMTLEKLYFNIIESIKKHYGDMEVTYAEKDNGGRY	not failed
GSSGSSGSTVVMADVSQYHVNHLVTFCLGEEDGVHTVEDASRKLAVMDSQGRVWAQEMLLRVSPSQVTLLDPVSKEELESYPLDAIVRCDAVMPRGRSRSLLLLVCQEPERAQPDVHFFQGLLLGAELIREDIQGALQNYRSGRGERSGPSSG	not failed
MNGMGGALRAASGKLNGLLNFARQLAFVKLFGVYLPRNNQFNNATACADLLCKAEVIPGSESHFRPRRQPDASGAASGIAGRQSAGASGARQQSSNEENHDARRHGRRGRVHRDRAFRNRMRGERSARRHRSGIGRLIRRALRSRAAHGIARRRVSRAIAGGVGRGRPGRGHDARGGDAGRRRRDGRAIRAAAGCGHARAGRARAGHAHVGRARVRRHDSRRFVAMGEYGGLAARLGCARRFQHRCAGDAARLVRGCAAGARREPRPHVRADPGDSLSRQSRVARCRARSGLMRVLFAISLLAVAWLAGCTGLRGGIERDARRESNESAALFKRASDGDNSVHALAPVVVDDGLWVSAGAVKLRSGEQLPPLFDEPASFDRAVSSLSEFAEQITRLTQVPTQVAASAQQAAARSQQGGGADGAARSAPVFLDAAGARSTPPLPPGMPGGASAGGGKAGGSGAGPDGGAGTSFAPVRIVYAGGTLRGLLDAACARFGVFWKYEQGTIRFFFTDTRTFQVNAIPGDSSLNASVVSGATSDGTSGGSQSGGSGGGINGASGGTTGLTANNTANTAVNSQLSVFNGLQSAIQSMLSRYGSSVSSPATGSISVTDTPDVLERVAAFMTQQNRSLSRQVLLNVTVLSVSLKAGDAYGIDWSLVYKTMSAGFNITNPFNPVSLTKPADLSATVLSPTSRFNGTKLLIRALSQQGTVRRKTSASVTTLNNQPVPVQVATQTGYLASVSTTNTANVGSSTALTPGVVTTGFNMTLLPHVLDDGTVMLQFSTNISSLLQLKEVSSSTGGRSAARIQTPDVDMRNFLQRVAMKSGETLVISGYEGANDSLDERGVGTPKMIALGGGYEAQRAREVIVILITPVTQRGGA	failed
MKVELPQGGYQGLAGDGVVEFRGVPFALPPVGELRFKAPRPLPDSDRSVNADRYPLPSLQVKNPLMGVEDSGEDCLYLNIWVPEGEGPFPVMLWYHGGGYIAGSVSQPLYNGAALAASQKVVVVHAAYRLGAHGFADFATIAPELEADSNLGLRDQVAALEWVNRHIEAFGGRPDRVTLFGESAGGFSVATLMATPRARPLFQAAIVQSGAGDFALAPEEVAKVTSAFVEALPGDGSAADKLRQADPKAWIAAQNQALRTLVKRGLRDTTPQFAMNFQPMVDGDLLPRLPVDAIADGEARDIALMASVCRDEYHFFQYAGPMAGFPSVEELRRFDEAEILRRFQRALPQHGQQALSYYQRTVTPDPQRSNMDWFSAMETDRLFRVPTLRLLDAQAAHRDDTRGLQFTWTSQQFGVPMGACHVIDVPFVFGVTDTPAGMFFTGGGEPARALAAEVQKVWGDFAHGRAVQGPAWKDTRRVRQFGPGDAEAALLDADGEALWADIIPVPGTAKPGQGA	not failed
MCRALLSITMQIPLVKWTEGLNIKTIVSISYVCYAVAAIGFAFSSSIFWLLSTAVLFTAAESMLLNHMQTFVSRLAPNHIRGGYFAFFGPHWDISRTIGPFLGGMIFIKFGGAALFLAIAGIMALGGIAQYRAVSRLKKLVLYSTWY	failed
MVTGIVFHEEYLKHEQSPTHPERRERLAYTMDQLREEGIFESERIVLLEPFKASLEDVLEVHTEEYVRFLEMESKKGGIIDFDTNIPVGVFDRALLAAGGAIRAAQAVLNKECENAFAMIRPPGHHAKPYIGAGFCYLNNMAIMVKWLLKQGFERIAILDWDAHHGDGTQEIFYNDDRVLFISTHQMPLYPGTGYPEECGTGKGEGYTVNIPLPPGTGDEGYMMVIDEIIEPVVNEFKPQFIAISAGQDNHFTDPITSLALTARGYAEMMRRAVAMAEKHCDGRLVAVLEGGYSVEGALPYTNLGIIAAMAGFDLSAIREPENYLPELLWRKRDSALVKLKHNIEDVKRVHSKYWKCFK	failed
MSKITFKDIYIDGNKITEDSRKAIYLLPPQPLKYASNTWIYKTMPTMNQWLKDIEVQKKMHLNQSSYHLSFSFPANEKIDEVLLEKIRELGFQIGVLELYVIEAKALKELSRKRDVDIQLVSSNNINDYLHVYDAFARPFGDSYANMVKQHIYSSYNLDDIERLVAYVNHQPVGIVDIIMTDKTIEIDGFGVLEEFQHQGIGSEIQAYVGRMANERPVILVADGKDTAKDMYLRQGYVYQGFKYHILKENI	not failed
MISKHQAVKKIFDQISDKYDLIDTIISLGLDQRWRRSLISNLKLMPGLQCLDCGAGSGKVTELIMESCDSCSVTALDITDSMFNPELTKRCKFVVSPAESLPFSDETFDRVSSAFLTRNLADVDKYFSEVYRVLKPGGIFVNLDIFNPTKPVFSQFFSLYFYRMVPFFGNHATHSRNYSYLANSVKFFYSPFILSKKLESKGFIVEPKDLFFGSVFMHIAQKKLEHHHHHH	not failed
MNINEKAIEMFEQNKYEEAMELFQQAVHKSRDVQSLNNLAWMYFYEEENDEKALELIREVVKLNPSSYFPYNILGEIYIKQKKWEEAKEVLQKSISIQPSDEAYHNVAVAHYNLGELEKASDFFLRVAGDSDYIMYSYVKCLIDLERTTEAKEKLDTFNRESDNFLGEINVADLYVELNCYKEAIEWFEKGYKECWKSPNWIGRFVYALYKTNNFSRINEVIRECIEAKTAEIEDVQNEEVEENWTENDKKELIEEYTEENNCYKTMVERIKSGYVPGLEFETDYIGACYLFGCKRHNHLEYEK	failed
MSLKTGRSNIIAFIVPDQNPFFTEVLTEISHECQKHHLHVAVASSEENEDKQQDLIETFVSQNVSAIILVPVKSKFQMKREWLKIPIMTLDRELESTSLPSITVDNEEAAYIATKRVLESTCKEVGLLLANPNISTTIGRKNGYNKAISEFDLNVNPSLIHYSDQQLGTNAQIYSGYEATKTLLSKGIKGIVATNHLLLLGALQAIKESEKEIKKDVIIVGFDDSYWNEIYTPKLTVISQPVKEMGQVAAKMIYKLIKGKDVTSIKLSTKLIIRESCSFNEGHHHHHH	not failed
MIPMFTVTLEDSGTLWKSLHSSSESEMTTLPPLPMTRPKLTALARQKLPCSSRKIPRSQLIKEKDDIDHYLEVNFKGLSKEEVAAYRNSYKKNICVDMLRDGYHKSFTELFALMERWDALREAARVRSLFWLQKPLEEQPDKLDYLYHYLTRAEDAERKESFEDVHNNLYALACYFNNSEDKWVRNHFYERCFKIAQLIKIDCGKKEAEAHMHMGLLYEEDGQLLEAAEHYEAFHQLTQGRIWKDETGRSLNLLACESLLRTYRFLSDKMLENKEYKQAIKILIKASEIAKEGSDKKMEAEASYYLGLAHLAAEEYETALTVLDTYCKISTDLDDDLSLGRGYEAIAKVLQSQGEMTEAIKYLKKFVKIARNNFQSLDLVRASTMLGDIYNEKGYYNKASECFQQAFDTTVELMSMPLMDETKVHYGIAKAHQMMLTVNNYIESADLTSLNYLLSWKESRGNIEPDPVTEEFRGSTVEAVSQNSERLEELSRFPGDQKNET	failed
RGIAVYVEHHNGNIHPVTYELIGKAREMASKIKQPVYCVFVGKDIKDKCSNLISYGVDEVFVYDEDEFKDFRIEPYSKAIENFIDKIKPTIVLVGGTTLGRSLAPRLAARFRTGLTADCTILDIQSNTDLDQIRPAFGGNIMAHINTPNNRPQFATVRYKIFSAPEKIENTTGKITLCKVEKKELKSKIKVLSVKEKNKEVG	failed
MDKILFDIALILIFTKIGSLISIHFKMPGVLGELIAGVILGPFILNLIQANADIKLLSDLGVVFLMFLAGIETNLDELKKAGKSSFLIALGGIIIPLIVGTLSAYMFFSNFYENLFVGVILTATSVSISVQTLTELGKLNTRSGINILGAAIIDDVLGLILITVVLAISGGTKSHGSSIFMTFIYIGIFCLVSLLAIAFLPKPIDKLTQKFKPQKGLAIFSIAAALICAFTAEKLGIAAITGAYICGLVLSPITHKEYIEKRVKIISTSFLSPIFFASVGISASVKGLNFEVLLITLIMFIIAVIGKILGCSASALTLKFKKSEALQIGVGMVSRGEVAIITANIGLQAKIISEEIFLPTLIVVILTTVITPILLKIVFSHKTQKLIDKETLT	failed
MEDQCIISHLAGIFSGVLATDFLRYAVGAGGVYLTVNLALAARLRARKIRAYEPPKGQIGREILASLRTVLIFALNGTLIVVGAEAGLVPIYREIATHGWAYLFFSTTVLIVAHDTWFYWSHRLLHYPPIFRRFHRLHHKSHNPTPFTSYSFDLGEAVVNAIYLPLILLVLPAHPVAILVFVTHMMLRNAIGHSGYEIFPANRRGKPLFDWITTVTHHDLHHAHAGYNLGLYFTWWDRLMGTEHPDYHEAFQKVAKPASWPSVRAVILAFAIFTGIAVSDARAERLSGAYASPGFGVIVRFEPCNANPGLTCGRMIWAWDAAEVPHAQSGDVIVIDLHGDGNVWSGRLKNPENGRMYRGSVVQRSPDTIVLRGCAGPFCTSQIWHSVRALRRALESAE	failed
MNQSPSILRKTRKGEYMAFADLAAEKTQGVDYDFLVLDRASAVAIVAPHGGWIEHGTSELATAVAGDDFSLYLFEGLKPKRPHSELHIPSEYFDENRCVDLVSRARIVIGMHGRADGDDPETIWLGGLGKELRDAIAAALEAAGFKAITSGHRLPGEHKNNICNRGINQAGVQLEPCRWSNRCLSATETHSTSATTAIISRLSIAA	failed
MELSINILNIIGILLEIGVSIYIIISEKKKSKNRNSEAENDLIQQTNNIINNTQGDNASFNYTNVLMQSKYQERAYREILNDLGDKKENKQKSKYGKKCSYLRKVINIVCLGIGGFWAFYYFDLMKITSFNTYLLNVLFQTIYTLATFILIFSLSNFVKLFLIHFKEYNYIVLRKIQLFLTTLFALLGATIWLYFDWRANFRPLFNMYTESSYYTLGIIMLGLVFYVFHQMAQSFLLNNIWVPKKAVKILFVSLIFSLIASICLFI	failed
MTNSEVSTDLPDKPTSDNEQPDKATSDKEQLGKPPSDRDLRNPTSRLRARLQLIGGALASIAAIGAIAGGLVGYWTVWKTLRTDVFPDKQQTQREATARPDVAPRLSLVVLPFANLNNDPEQDYFADSITTDLTTDLAQMPGAFVIGRGTAFTFKNKQIDFKTLGKELGIRWAVQGAVRRNGDQIRVNVSLTDAASGRDIWSDRFDGDRTNLAALQDQITGRLARSLNIELMQAESRRSEKDQSRNPDAMDFTMRGWAKFYEPRSKTEIAQAKDLFDRALHLDPDNVDAMIAKAWCLAIAAGFRWSTSMAEDKEIATDLIDRALAKSSSNALAYVVKGDTLRVFGRPEEALPEYDAALEINPNFPIAYAQKGLALILSGRAREAFSPLQLALRLSPKDPIAVSWYYNLCHAHLHLQEYEEATKDCRRVININNAFWYAYVDLVSAYGASGQLEPARQSLTELNKIRPDFTIQWFREFGYGYSSNPQFRREFDEILDGLRKGGVREQ	failed
